How the values were obtained:
[1] = target: T1, 重组人CSF-1R-his蛋白 (Acro biosystems, Cat#CSR-H5228) (human, UniProt P07333 20-512); test: BLI (Octet), antibody on AHC sensor, CSF-1R-his in solution
T1 construct: Bought protein; also called human CSF-1R-his; not shown: His tag

[2] = target: T2, 猴CSF-1R-his蛋白 (内部制备, SEQ ID NO: 62) (monkey (cynomolgus), UniProt P07333 20-517 (human entry), limits assumed); test: indirect ELISA on coated monkey CSF-1R-his
T2 construct: Made in-house, coated in the indirect ELISA; also called monkey CSF-1R-his (in-house)
T2 chain: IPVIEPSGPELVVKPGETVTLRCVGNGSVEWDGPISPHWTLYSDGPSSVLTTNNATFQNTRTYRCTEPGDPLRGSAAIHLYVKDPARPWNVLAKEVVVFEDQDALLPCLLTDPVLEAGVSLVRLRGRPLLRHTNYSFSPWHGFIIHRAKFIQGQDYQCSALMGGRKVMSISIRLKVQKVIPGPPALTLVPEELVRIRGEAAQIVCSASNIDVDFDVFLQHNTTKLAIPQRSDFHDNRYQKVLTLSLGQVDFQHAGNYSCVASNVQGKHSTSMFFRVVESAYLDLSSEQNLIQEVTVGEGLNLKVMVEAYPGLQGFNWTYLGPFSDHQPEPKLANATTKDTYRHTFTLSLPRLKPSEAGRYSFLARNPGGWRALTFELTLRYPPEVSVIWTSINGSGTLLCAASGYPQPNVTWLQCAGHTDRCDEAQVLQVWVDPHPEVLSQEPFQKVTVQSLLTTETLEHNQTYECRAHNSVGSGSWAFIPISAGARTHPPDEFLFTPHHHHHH

生物素标记的人CSF-1R-Fc蛋白 = target: T3, 生物素标记的人CSF-1R-Fc蛋白 (human, biotin-labelled (sites not given)); test: capture ELISA: antibody captured by anti-human IgG, biotin-CSF-1R-Fc in solution
T3 construct: Made in-house; also called human CSF-1R-Fc

Measured: binding result

T3 sequence (chain, as listed by the source limits assumed): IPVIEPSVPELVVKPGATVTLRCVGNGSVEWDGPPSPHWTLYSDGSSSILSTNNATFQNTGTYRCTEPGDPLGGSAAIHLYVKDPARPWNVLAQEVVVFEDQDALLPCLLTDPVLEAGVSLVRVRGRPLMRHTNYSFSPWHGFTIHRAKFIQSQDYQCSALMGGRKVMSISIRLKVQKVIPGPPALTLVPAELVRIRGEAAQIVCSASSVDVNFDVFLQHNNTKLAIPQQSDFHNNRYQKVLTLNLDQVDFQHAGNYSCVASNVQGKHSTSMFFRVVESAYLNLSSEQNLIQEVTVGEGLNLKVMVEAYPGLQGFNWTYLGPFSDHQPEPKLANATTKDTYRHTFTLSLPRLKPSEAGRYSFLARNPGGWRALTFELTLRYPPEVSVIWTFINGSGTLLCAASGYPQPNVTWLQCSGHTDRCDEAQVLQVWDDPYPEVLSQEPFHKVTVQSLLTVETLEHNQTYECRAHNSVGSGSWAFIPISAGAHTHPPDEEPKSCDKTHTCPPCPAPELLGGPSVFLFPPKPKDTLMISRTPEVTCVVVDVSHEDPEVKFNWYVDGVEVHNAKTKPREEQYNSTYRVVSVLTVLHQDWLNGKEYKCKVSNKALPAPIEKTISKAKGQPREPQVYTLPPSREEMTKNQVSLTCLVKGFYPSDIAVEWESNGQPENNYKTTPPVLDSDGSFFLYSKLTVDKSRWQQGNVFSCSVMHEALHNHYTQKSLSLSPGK
T1 sequence (P07333 20-512 limits assumed): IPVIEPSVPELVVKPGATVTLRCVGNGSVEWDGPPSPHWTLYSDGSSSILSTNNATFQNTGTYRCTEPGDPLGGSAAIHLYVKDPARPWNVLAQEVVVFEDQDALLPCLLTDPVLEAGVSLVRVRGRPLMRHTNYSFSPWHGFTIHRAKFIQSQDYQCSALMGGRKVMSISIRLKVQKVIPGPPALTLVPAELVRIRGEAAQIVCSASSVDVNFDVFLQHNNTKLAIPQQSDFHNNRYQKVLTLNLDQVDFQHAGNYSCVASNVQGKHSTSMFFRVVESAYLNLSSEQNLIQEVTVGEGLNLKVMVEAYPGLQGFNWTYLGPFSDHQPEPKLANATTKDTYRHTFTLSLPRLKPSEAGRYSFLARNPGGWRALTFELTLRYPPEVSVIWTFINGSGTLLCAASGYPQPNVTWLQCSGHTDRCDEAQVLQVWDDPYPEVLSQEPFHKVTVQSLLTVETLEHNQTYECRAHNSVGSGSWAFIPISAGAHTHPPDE

B1: 卡比利珠单抗 (antibody, human IgG4 S228P, kappa, V domains shown)
VH: QVQLVQSGAEVKKPGSSVKVSCKASGYTFTDNYMIWVRQAPGQGLEWMGDINPYNGGTTFNQKFKGRVTITADKSTSTAYMELSSLRSEDTAVYYCARESPYFSNLYVMDYWGQGTLVTVSS
VL: NIVLTQSPATLSLSPGERATLSCKASQSVDYDGDNYMNWYQQKPGQAPRLLIYAASNLESGIPARFSGSGSGTDFTLTISSLEPEDFAVYYCHLSNEDLSTFGGGTKVEIKR
notes: Made in-house; also called Cabiralizumab; 对照基准物
binds: all assays above
